# Measurements from patent US20140037661A1, “Wheat Antigens and Peptides for Diagnosis of Wheat Induced Hypersensitivity” (PHADIA AB, priority 2011, published 2014).
# B1: GG1: recombinant gamma gliadin 1 with 6×Histidine at the C terminal end, expressed in E. coli (protein)
# chain: MNIQVDPSGQVQWLQQQLVPQLQQPLSQQPQQTFPQPQQTFPHQPQQQVPQPQQPQQPFLQPQQPFPQQPQQPFPQTQQPQQPFPQQPQQPFPQTQQPQQPFPQQPQQPFPQTQQPQQPFPQLQQPQQPFPQPQQQLPQPQQPQQSFPQQQRPFIQPSLQQQLNPCKNILLQQSKPASLVSSLWSIIWPQSDCQVMRQQCCQQLAQIPQQLQCAAIHSVVHSIIMQQQQQQQQQQGIDIFLPLSQHEQVGQGSLVQGQGIIQPQQPAQLEAIRSLVLQTLPSMCNVYVPPECSIMRAPFASIVAGIGGQHHHHHH
# B2: GluB3-23: recombinant full length s-LMW glutenin GluB3-23 of wheat without signal peptide, plus hexa-histidine tag (protein)
# chain: MKTFLIFALLAIVATSAIAQMENSHIPGLERPSQQQPLPPQQTLSHHQQQQPIQQQPQPFSQQQPCSQQQQQPLSQQQQPPFSQQQPPFSQQQQQPLSQQQQPPFSQQQPPFSQQQQPPFSQQQPPFSQQQQPVLPQQPSFSQQQLPPFSQQQSPFSQQQQIVLQQQPPFLQQQQPSLPQQPPFSQQQQQLVLPQQQIPFVHPSILQQLNPCKVFLQQQCSPVAMPQSLARSQMLQQSSCHVMQQQCCQQLPQIPQQSRYEAIRAIIYSIILQEQQQVQGSIQTPQQQPQQLGQCVSQPQQQSQQQLGQQPQQQQLAQGTFLQPHQIAQLEVMTSIALRTLPTMCRVNVPLYRTTTSVPFGVGTGVGSYHHHHHH
# B3: mal82: recombinant MBP fusion with part of repetitive region and C-terminal non repetitive region of Glu-B1, hexa-histidine tag (protein)
# chain: PTSPQQSGQGQQGYYPTSPQQSGQGQQGYYPTSPQQSGQGQQPGQGQQPRQGQQGYYPISPQQSGQGQQPGQGQQRYYPTSPQQSGQGQQPGHEQQPGQWLQPGQGQQGYYPTSSQQSGQGHQSGQGQQGYYPTSLWQPGQGQQPGQGQQGYASPYHVSAEYQAARLKVAKAQQLAAQLPAMCRLEGSDALSTRQHHHHHH
# modifications: left off: large carriers
# B4: mal43: recombinant MBP fusion with part of the repetitive domain of HMW glutenin Glu-B1 and hexa-histidine tag (protein)
# chain: RNSGQQLGQGQPGYYPTSQQSEQRQQPGQGKQPGQGQQGYYPTSPQQSGQGQQLGQGQPGYYPTSPQQSGQGQQSGQGQQGYYPTSPQQSGQGQQPGQGQSGYFPTSRQQSGQGQQPGQGQQSGQGQQGQQPGQGQQAYYPTSSQQSRQRQQAGQWQRPGQGQPGYYPTSPQQPGQEQQSGQAQQSGQWQLVYYPTSPQQPGQLQQPAQGQQPAQGQQSAQEQQPGQAQQSGQWQLVYYPTSPQQPGQLQQPAQGQQGYYPTSPQQSGQGQQGYYPTSSRHHHHHH
# modifications: left off: large carriers
# B5: Bet v 1: recombinant protein used for control pre-incubation of sera in the IgE inhibition dot blot (protein)
# chain: GVFNYETETTSVIPAARLFKAFILDGDNLFPKVAPQAISSVENIEGNGGPGTIKKISFPEGFPFKYVKDRVDEVDHTNFKYNYSVIEGGPIGDTLEKISNEIKIVATPDGGSILKISNKYHTKGDHEVKAEQVKASKEMGETLLRAVESYLLAHSDAYN
# B6: C175: recombinant protein of clone 175: the three C-terminal regions of GluB3-23 and the hexa-histidine tag (protein)
# chain: RQQLGQGQQGYYPTSLQPGQKQQAGQGQQSGQGQQGYYPTSPQQSGQGQQPGQGQPGYYPTSPQQSGQWQQPGQGQQPGQGQQSGQWQLVYYPTSPQQQIVLQQRPPFLQQQQPSLPQQPPFSQQQQQLVLPQQQIPFVHPSILQQLNPCKVFLQQQCSPVAMPQSLARSQMLQQSSCHVMQQQCCQQLPQIPQQSRYEAIRAIIYSIILQEQQQVQGSIQTPQQQPQQLGQCVSQPQQQSQQQLGQQPQQQQLAQGTFLQPHQIAQLEVMTSIALRTLPTMCRVNVPLYRTTTSVPFGVGTGVGSYHHHHHH
# B7: α-purothionin: clone 84-derived wheat allergen expressed as recombinant protein with C-terminal hexahistidine tag in E. coli (protein, listed as Triticum aestivum)
# chain: LSSGLSCPKGFPKLALESNSDEPDTIEYCNLGCRSSVCDYMVNAAADDEEMKLYVENCADACVSFCNGDAGLPSLDAY
# modifications: C-terminal His6 tag
# notes: clone 84-derived wheat allergen expressed as recombinant protein with C-terminal hexahistidine tag in E. coli
# Assays:
# [1] = test system: serum IgA from Dermatitis herpetiformis (DH) patients; test: Dermatitis herpetiformis serum IgA reactivity ELISA; format: binding, human; settings: 5 μg/ml coated; n=12 DH patients, 2 healthy controls; FIG. 18
# Protocol: ELISA plates were coated with 100 μl of 5 μg/ml rGamma gliadin 1, rGamma gliadin 2, α-gliadin peptide p56-75 (α-gli peptide), deamidated α-gliadin peptide (D) and Human serum albumin. The bound proteins were probed with sera from Dermatitis herpetiformis (DH) patients and healthy controls. IgA reactivity to the proteins was detected using mouse anti-human IgA1/A2 and sheep anti-mouse IgG-HRP labelled antibody. (n=12 DH patients and 2 healthy controls).
# [2] = test system: serum IgA of celiac disease patients; test: IgA reactivity ELISA to wheat food antigens; format: binding, human; settings: 5 μg/ml coated, sera 1:100, read at 405 nm, FIG. 15
# Protocol: 100 μl of the wheat proteins GG1 (Gamma gliadin 1), GG2 (Gamma gliadin 2), α-purothionin, GluB3-23, C-175, Mal 82 and Mal 43 of a concentration of 5 μg/ml were coated overnight at 4° C. onto Nunc Maxisorp Elisa plates. The remaining free binding sites were blocked with 1% BSA in PBST for 2 hours at room temperature. 100 μl of sera from celiac disease patients, celiac patients on diet and negative controls were added at a dilution of 1:100 in 0.5% BSA in PBST buffer and incubated for 12 hours at 4° C. The plates were washed 5 times in PBST buffer and 100 μl of mouse anti-human IgA1/A2 (BD Biosciences) diluted to 1:1000 in 0.5% BSA/PBST buffer was added and incubated at room temperature for 5 hours. The plates were then washed 5 times with PBST and 100 μl of sheep anti-mouse IgG conjugated with Horse radish peroxidise (HRP) (Amersham) antibodies were added and incubated at 37° C. for one hour.
# [3] = test system: IgE binding to GluB3-23; test: IgE inhibition dot blot (sera pre-incubated with recombinant protein); set-up: species or system human
# Protocol: An inhibition dot blot was performed with patients' sera. […] Bound IgE Abs were detected with ^125I-labelled anti human IgE Abs and visualized by autoradiography, the dot intensity was measured by a gamma counter.
# [4] = test system: serum IgE antibodies from patients suffering from wheat food allergy; test: IgE reactivity dot blot with sera from wheat food allergic patients; format: binding, human; settings: for patients showing IgE reactivity: 0.5 μg dotted protein, sera 1:10; for patients reacting to the recombinant protein (IgE): FIG. 12
# Protocol: GluB3-23 is a major allergen in wheat dependent food allergy IgE reactivity of wheat food allergic patients to GluB3-23 and C175 was tested by dot blot analysis shown in FIG. 10 and FIG. 11. 0.5 μg of purified recombinant proteins (GluB3-23 and C175), 2 μg aqueous wheat seed (WSE) extract and 0.5 μg of human serum albumin (HSA) were dotted onto nitrocellulose (Whatman Protran nitrocellulose membrane, Sigma Aldrich) strips and after blocking with buffer A (50 mM sodium phosphate buffer, pH7.4, 0.5% w/v BSA, 0.5% v/v Tween-20, 0.05% w/v NaN3) incubated with 1:10 diluted sera from patients suffering from wheat food allergy. Bound IgE Abs were detected with 1:10 diluted ^125I labeled anti human IgE Abs and visualized by autoradiography.
# Sera were obtained from populations of patients suffering from wheat food allergy. Patients were selected according to positive case history, positive Skin Prick Test (SPT), double blind or open food challenge or CAP-test (Phadia, Uppsala, Sweden) to wheat.
# The recombinant high molecular weight proteins mal43 and mal82, representing partial proteins of Glu-B1, were tested in dot blots with sera from patients from a population shown in FIG. 11. Sera were obtained from patients suffering from wheat food allergy. Patients were selected according to positive case history and positive Skin Prick Test (SPT) or CAP-test (Phadia, Uppsala, Sweden) to wheat. 0.5 μg of purified recombinant proteins (mal43 and mal82), 2 μg aqueous wheat seed (WSE) extract and 0.5 μg of human serum albumin (HSA) were dotted onto nitrocellulose (Whatman Protran nitrocellulose membrane, Sigma Aldrich) strips and after blocking with buffer A incubated with 1:10 diluted patients sera. Bound IgE Abs were detected with 1:10 diluted ^125I labeled anti human IgE Abs and visualized by autoradiography. […] On the basis of WHO/IRIS Allergen Standardization Committee definition (www.allergen.org), an allergen recognized by 10% of the patients is a minor allergen.
# The IgE reactivity of dot-blotted recombinant wheat α-purothionin was tested with serum IgE antibodies from patients suffering from wheat food allergy (Table 3). […] 23% of patients from one population (n=13) and 29% of the patients from another population (n=24) reacted to the recombinant α-purothionin. (FIG. 12).
# [5] = serum Pat 3, pre-incubated with 10 μg protein
# [6] = serum Pat 8, pre-incubated with 10 μg protein
# [7] = serum Pat 10, pre-incubated with 10 μg protein
# [8] = serum Pat 11, pre-incubated with 10 μg protein
# [9] = serum Pat 12, pre-incubated with 10 μg protein
# [10] = another wheat food allergy patient population, FIG. 11
# [11] = wheat food allergy patient population of FIG. 10
Molecule,IgA reactivity [2],"bound IgE, dot intensity by gamma counter [3, 5] [cpm]","bound IgE, dot intensity by gamma counter [3, 7] [cpm]","bound IgE, dot intensity by gamma counter [3, 8] [cpm]","bound IgE, dot intensity by gamma counter [3, 9] [cpm]","patients showing IgE reactivity [4, 10] [%]",also measured
B1,high,,,,,,"IgA reactivity, DH patients versus healthy controls [1]: higher IgA reactivity to sera from DH patients than to healthy controls"
B2,moderate,326.0,36.0,58.9,17.7,80.8,"% inhibition of IgE binding [3, 5]: 63.3%; % inhibition of IgE binding [3, 6]: 100.0%; bound IgE, dot intensity by gamma counter [3, 6]: 31.5 cpm; % inhibition of IgE binding [3, 7]: 100.0%; % inhibition of IgE binding [3, 8]: 93.8%; patients showing IgE reactivity [4, 11]: 54.5%"
B3,moderate,,,,,30.8,
B4,moderate,,,,,30.8,
B5,,829.0,377.6,379.0,11.5,,
B6,moderate,650.0,379.1,190.0,16.2,73.1,"% inhibition of IgE binding [3, 5]: 22.6%; % inhibition of IgE binding [3, 6]: 3.0%; bound IgE, dot intensity by gamma counter [3, 6]: 73.9 cpm; % inhibition of IgE binding [3, 7]: 0.0%; % inhibition of IgE binding [3, 8]: 55.3%; potential to inhibit IgE binding to GluB3-23 ([3]; summary of Table 2): low potential to inhibit IgE binding; patients showing IgE reactivity [4, 11]: 27.3%"
B7,negative,,,,,,patients reacting to the recombinant protein (IgE) ([4]; another population (n=24)): 29%; patients reacting to the recombinant protein (IgE) ([4]; one population (n=13)): 23%
